Laboratory results from article PMC9304036 (Proceedings of the National Academy of Sciences of the …, 2022).

B1: ADG20 Fab (Fab, V domains shown)
VH: EVQLVESGGGLVKPGGSLRLSCAASGFTFSSYYMNWVRQAPGKGLEWVSSISEDGYSTYYPDSLKGRFTISRDSAKNSLYLQMNSLRADDTAVYYCARDFSGHTAWAGTGFEYWGQGTLVTVSS
VL: QPVLTQPPSVSGAPGQRITISCTGSSSNIGAGYDVHWYQQLPGTAPKLLIYGSSSRNSGVPDRFSGSKSGTSASLAITGLQAEDEADYYCQSYDSSLSVLYTFGTGTKVTVL
notes: also called ADG-2 (same Fab domain)
B2: ADG20 IgG (antibody, V domains shown)
VH: EVQLVESGGGLVKPGGSLRLSCAASGFTFSSYYMNWVRQAPGKGLEWVSSISEDGYSTYYPDSLKGRFTISRDSAKNSLYLQMNSLRADDTAVYYCARDFSGHTAWAGTGFEYWGQGTLVTVSS
VL: QPVLTQPPSVSGAPGQRITISCTGSSSNIGAGYDVHWYQQLPGTAPKLLIYGSSSRNSGVPDRFSGSKSGTSASLAITGLQAEDEADYYCQSYDSSLSVLYTFGTGTKVTVL
notes: copies: 2 + 2
B3: ADI-55688 Fab (Fab, V domains shown)
VH: EVQLVESGGGLVKPGGSLRLSCAASGFTFSSYYMNWVRQAPGKGLEWVSSISSDGYNTYYPDSLKGRFTISRDSAKNSLYLQMNSLRADDTAVYYCARDFSGHTAVAGTGFEYWGQGTLVTVSS
VL: QPVLTQPPSVSGAPGQRITISCTGSSSNIGAGYDVHWYQQLPGTAPKLLIYGSSSRPSGVPDRFSGSKSGTSASLAITGLQAEDEADYYCQSYDSSLSVLYVFGTGTKVTVL
notes: also called parental antibody of ADG20

What was measured:
[1] = molecular target: SARS-CoV-2 spike receptor-binding domain (RBD), residues 333 to 529, wild type, for crystallization (SARS-CoV-2 Wuhan-Hu-1 (QHD43416.1), UniProt P0DTC2); assay: crystal structure; settings: both partners purified
[2] = molecular target: SARS-CoV-2 RBD, ancestral (wild type), for biolayer interferometry (SARS-CoV-2 Wuhan-Hu-1 (ancestral), UniProt P0DTC2); assay: BLI; Octet Red; […] (15 µg/mL) […] (AHC) biosensors; […]; 1x PBS pH 7.4, 0.01% BSA, 0.002% Tween 20; association 90 s, dissociation 90 s; 1:1 binding model; settings: both partners purified

Row | Binder | binding result [1] | binding result [2]
1 | B1 | binds | 
2 | B2 |  | binds
3 | B3 | binds | 
